Assay in all cases: Mass spectroscopy proteomics, semi-quantitative binding affinity of serum proteins (plaqueproteome, Table 2)
Holding throughout (conditions): higher number = stronger affinity

The target of test [1] is T1, Abeta-42 plaque particles (Homo sapiens, UniProt P05067).
T1 construct: Abeta 1-42
The method in brief: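 AD patient serum or plasma (50% in PBS) was incubated with Abeta-42 aggregates (30 μg) for 1 h at 37 °C, then stained with Thioflavin S for 30 min. Labeled particles were FACS-sorted, trypsin/Lys-C digested overnight and analyzed by MS/MS. Sequest searched human UniProt; Scaffold/Protein Prophet validated the identifications.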

Test [2] has as its system Low density cholesterol (Chl small) plaque particles. On the set-up: species or system human. The method in brief: (§1)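 Read-out is MS/MS protein identification (Sequest, strict trypsin, 20 ppm parent tolerance; Scaffold probabilities) of serum proteins bound to flow-sorted cholesterol plaque particles. These particles formed when 50% atherosclerotic serum was incubated with 30 μg cholesterol aggregates for 1 hr at 37° C.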

The test system of test [3] is High Density cholesterol (Chl Large) plaque particles. Details: species or system human. The method in brief: as §1
The subject of a further test is Tau plaque particles. Details: species or system human. The method in brief: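 Serum or plasma proteins captured on Thioflavin S-labelled Tau plaque particles (Tau-74, Tau-275 oligomers preformed in PBS at 37° C for 2 h; 1 h co-incubation at 37° C) were isolated by FACS sorting, then tryptically digested and identified by MS/MS (Sequest, human UniProt, strict trypsin).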

Test [4] deals with T2, alpha-synuclein plaque particles (Homo sapiens, UniProt P37840).
T2 construct: 140 amino acids polypeptide
The method in brief: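 AD-subject plasma or serum (800 μL of 50%) mixed with 30 μg preformed alpha-synuclein aggregates for 1 h at 37 °C; Thioflavin S-positive particles isolated by flow sorting. After reduction, acrylamide alkylation and overnight tryptic digestion, serum proteins identified by MS/MS with Sequest and Scaffold.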

B1: Coagulation factor XIII B chain (protein)
chain: EEKPCGFPHVENGRIAQYYYTFKSFYFPMSIDKKLSFFCLAGYTTESGRQEEQTTCTTEGWSPEPRCFKKCTKPDLSNGYISDVKLLYKIQENMRYGCASGYKTTGGKDEEVVQCLSDGWSSQPTCRKEHETCLAPELYNGNYSTTQKTFKVKDKVQYECATGYYTAGGKKTEEVECLTYGWSLTPKCTKLKCSSLRLIENGYFHPVKQTYEEGDVVQFFCHENYYLSGSDLIQCYNFGWYPESPVCEGRRNRCPPPPLPINSKIQTHSTTYRHGEIVHIECELNFEIHGSAEIRCEDGKWTEPPKCIEGQEKVACEEPPFIENGAANLHSKIYYNGDKVTYACKSGYLLHGSNEITCNRGKWTLPPECVENNENCKHPPVVMNGAVADGILASYATGSSVEYRCNEYYLLRGSKISRCEQGKWSSPPVCLEPCTVNVDYMNRNNIEMKWKYEGKVLHGDLIDFVCKQGYDLSPLTPLSELSVQCNRGEVKYPLCTRKESKGMCTSPPLIKHGVIISSTVDTYENGSSVEYRCFDHHFLEGSREAYCLDGMWTTPPLCLEPCTLSFTEMEKNNLLLKWDFDNRPHILHGEYIEFICRGDTYPAELYITGSILRMQCDRGQLKYPRCIPRQSTLSYQEPLRT
Regarding B1, the “Semi-quantitative analysis of proteins binding to different plaque particles: Abeta-42” value in test [1] stood at 0. The “Semi-quantitative analysis of proteins binding to different plaque particles: Chl small” value in test [2] is listed as 1. Also, in test [3], the “Semi-quantitative analysis of proteins binding to different plaque particles: Chl Large” value amounted to 0. Moreover, the “Semi-quantitative analysis of proteins binding to different plaque particles: Tau” value in the test with Tau plaque particles came out at 0. In addition, the “Semi-quantitative analysis of proteins binding to different plaque particles: Synuclein” value in test [4] is 0.

B2: Ig kappa chain V-I region BAN (protein)
chain: DIQMTQSPSSLSASVGDRVTITCRASQGISNYLAWFQQKPGKAPKSLIYAASSLQSGVPSKFSGSGSGTDFTLTISSLQPEDFATYYCQQYNSYP
As to B2, the “Semi-quantitative analysis of proteins binding to different plaque particles: Abeta-42” value in test [1] is 2. Moreover, the “Semi-quantitative analysis of proteins binding to different plaque particles: Chl small” value in test [2] was 1. The “Semi-quantitative analysis of proteins binding to different plaque particles: Chl Large” value in test [3] was determined as 2. Further, in the test on Tau plaque particles, the “Semi-quantitative analysis of proteins binding to different plaque particles: Tau” value is 2. The “Semi-quantitative analysis of proteins binding to different plaque particles: Synuclein” value in test [4] came out at 1.

B3: Ig heavy chain V-I region HG3 (protein)
chain: QVQLVQSGAEVKKPGASVKVSCKASGYTFTSYYMHWVRQAPGQGLEWMGIINPSGGSTSYAQKFQGRVTMTRDTSTSTVYMELSSLRSEDTAVYYCAR
Consider B3, for which the “Semi-quantitative analysis of proteins binding to different plaque particles: Abeta-42” value in test [1] came out at 2. In addition, the “Semi-quantitative analysis of proteins binding to different plaque particles: Chl small” value in test [2] is 1. For the same molecule, the “Semi-quantitative analysis of proteins binding to different plaque particles: Chl Large” value in test [3] is 1. The “Semi-quantitative analysis of proteins binding to different plaque particles: Tau” value with Tau plaque particles was found to be 1. Besides, in test [4], the “Semi-quantitative analysis of proteins binding to different plaque particles: Synuclein” value worked out at 2.

B4: Histone H1.3 (protein)
chain: SETAPLAPTIPAPAEKTPVKKKAKKAGATAGKRKASGPPVSELITKAVAASKERSGVSLAALKKALAAAGYDVEKNNSRIKLGLKSLVSKGTLVQTKGTGASGSFKLNKKAASGEGKPKAKKAGAAKPRKPAGAAKKPKKVAGAATPKKSIKKTPKKVKKPATAAGTKKVAKSAKKVKTPQPKKAAKSPAKAKAPKPKAAKPKSGKPKVTKAKKAAPKKK
Regarding B4, the “Semi-quantitative analysis of proteins binding to different plaque particles: Abeta-42” value in test [1] is recorded as 2. For the same molecule, the “Semi-quantitative analysis of proteins binding to different plaque particles: Chl small” value in test [2] came out at 0. Moreover, the “Semi-quantitative analysis of proteins binding to different plaque particles: Chl Large” value in test [3] is recorded as 0. The “Semi-quantitative analysis of proteins binding to different plaque particles: Tau” value with Tau plaque particles is 0. Further, the “Semi-quantitative analysis of proteins binding to different plaque particles: Synuclein” value in test [4] is reported as 0.

B5: Complement factor H-related protein 1 (protein)
chain: EATFCDFPKINHGILYDEEKYKPFSQVPTGEVFYYSCEYNFVSPSKSFWTRITCTEEGWSPTPKCLRLCFFPFVENGHSESSGQTHLEGDTVQIICNTGYRLQNNENNISCVERGWSTPPKCRSTDTSCVNPPTVQNAHILSRQMSKYPSGERVRYECRSPYEMFGDEEVMCLNGNWTEPPQCKDSTGKCGPPPPIDNGDITSFPLSVYAPASSVEYQCQNLYQLEGNKRITCRNGQWSEPPKCLHPCVISREIMENYNIALRWTAKQKLYLRTGESAEFVCKRGYRLSSRSHTLRTTCWDGKLEYPTCAKR
In the case of B5, the “Semi-quantitative analysis of proteins binding to different plaque particles: Abeta-42” value in test [1] amounted to 0. Moreover, the “Semi-quantitative analysis of proteins binding to different plaque particles: Chl small” value in test [2] came to 1. For the same molecule, the “Semi-quantitative analysis of proteins binding to different plaque particles: Chl Large” value in test [3] came out at 2. In addition, the “Semi-quantitative analysis of proteins binding to different plaque particles: Tau” value in the test on Tau plaque particles stood at 1. In test [4], the “Semi-quantitative analysis of proteins binding to different plaque particles: Synuclein” value turned out to be 0.

B6: Galectin-3-binding protein (protein)
chain: VNDGDMRLADGGATNQGRVEIFYRGQWGTVCDNLWDLTDASVVCRALGFENATQALGRAAFGQGSGPIMLDEVQCTGTEASLADCKSLGWLKSNCRHERDAGVVCTNETRSTHTLDLSRELSEALGQIFDSQRGCDLSISVNVQGEDALGFCGHTVILTANLEAQALWKEPGSNVTMSVDAECVPMVRDLLRYFYSRRIDITLSSVKCFHKLASAYGARQLQGYCASLFAILLPQDPSFQMPLDLYAYAVATGDALLEKLCLQFLAWNFEALTQAEAWPSVPTDLLQLLLPRSDLAVPSELALLKAVDTWSWGERASHEEVEGLVEKIRFPMMLPEELFELQFNLSLYWSHEALFQKKTLQALEFHTVPFQLLARYKGLNLTEDTYKPRIYTSPTWSAFVTDSSWSARKSQLVYQSRRGPLVKYSSDYFQAPSDYRYYPYQSFQTPQHPSFLFQDKRVSWSLVYLPTIQSCWNYGFSCSSDELPVLGLTKSGGSDRTIAYENKALMLCEGLFVADVTDFEGWKAAIPSALDTNSSKSTSSFPCPAGHFNGFRTVIRPFYLTNSSGVD
With B6, the “Semi-quantitative analysis of proteins binding to different plaque particles: Abeta-42” value in test [1] amounted to 0. Moreover, the “Semi-quantitative analysis of proteins binding to different plaque particles: Chl small” value in test [2] is 0. In addition, in test [3], the “Semi-quantitative analysis of proteins binding to different plaque particles: Chl Large” value was 1. The “Semi-quantitative analysis of proteins binding to different plaque particles: Tau” value in the test with Tau plaque particles was 0. Also, the “Semi-quantitative analysis of proteins binding to different plaque particles: Synuclein” value in test [4] worked out at 0.

B7: Isoform 2 of Arginase-1 (protein)
chain: MSAKSRTIGIIGAPFSKGQPRGGVEEGPTVLRKAGLLEKLKEQVTQNFLILECDVKDYGDLPFADIPNDSPFQIVKNPRSVGKASEQLAGKVAEVKKNGRISLVLGGDHSLAIGSISGHARVHPDLGVIWVDAHTDINTPLTTTSGNLHGQPVSFLLKELKGKIPDVPGFSWVTPCISAKDIVYIGLRDVDPGEHYILKTLGIKYFSMTEVDRLGIGKVMEETLSYLLGRKKRPIHLSFDVDGLDPSFTPATGTPVVGGLTYREGLYITEEIYKTGLLSGLDIMEVNPSLGKTPEEVTRTVNTAVAITLACFGLAREGNHKPIDYLNPPK
Consider B7, for which the “Semi-quantitative analysis of proteins binding to different plaque particles: Abeta-42” value in test [1] worked out at 2. In test [2], the “Semi-quantitative analysis of proteins binding to different plaque particles: Chl small” value was found to be 0. Also, the “Semi-quantitative analysis of proteins binding to different plaque particles: Chl Large” value in test [3] came to 0. Further, in the test with Tau plaque particles, the “Semi-quantitative analysis of proteins binding to different plaque particles: Tau” value was determined as 0. Further, the “Semi-quantitative analysis of proteins binding to different plaque particles: Synuclein” value in test [4] came out at 0.

B8: Caspase-14 (protein)
chain: MSNPRSLEEEKYDMSGARLALILCVTKAREGSEEDLDALEHMFRQLRFESTMKRDPTAEQFQEELEKFQQAIDSREDPVSCAFVVLMAHGREGFLKGEDGEMVKLENLFEALNNKNCQALRAKPKVYIIQACRGEQRDPGETVGGDEIVMVIKDSPQTIPTYTDALHVYSTVEGYIAYRHDQKGSCFIQTLVDVFTKRKGHILELLTEVTRRMAEAELVQEGKARKTNPEIQSTLRKRLYLQ
As for B8, the “Semi-quantitative analysis of proteins binding to different plaque particles: Abeta-42” value in test [1] is listed as 5. In addition, the “Semi-quantitative analysis of proteins binding to different plaque particles: Chl small” value in test [2] is 0. Moreover, the “Semi-quantitative analysis of proteins binding to different plaque particles: Chl Large” value in test [3] stood at 0. The “Semi-quantitative analysis of proteins binding to different plaque particles: Tau” value with Tau plaque particles was 0. In test [4], the “Semi-quantitative analysis of proteins binding to different plaque particles: Synuclein” value was determined as 0.

Values taken from patent US9618524B2, “Method, composition, isolation and identification of a plaque particle and related biomarker” (Plaxgen Inc., priority 2012, dated 2017).
